Data as given in patent publication US20190359693A1 (Janssen / Centocor, published 2019).
Where a chain is given by its changes, count along the chain named. Like-named read-outs stand apart in the source and are kept apart here.

Experiments:
HA of H3N2 A/HK/1/68 [1] = molecular target: T1, HA of H3N2 A/HK/1/68 (influenza A virus, UniProt Q91MA7 17-530); assay: BLI (Octet)
[2] = molecular target: HA of H10N7 A/Chick/Germany/N/49 (influenza A virus); assay: cell-based or functional assay
[3] = molecular target: HA of H2N2 A/WF/HK/MPU3156/05 (influenza A virus); assay: cell-based or functional assay
HA of H3N2 A/HK/1/68-MA [4] = molecular target: HA of H3N2 A/HK/1/68-MA (influenza A virus); assay: cell-based or functional assay
[5] = molecular target: HA of H2N2 A/Guiyang/1/57 (influenza A virus); assay: cell-based or functional assay
[6] = molecular target: HA of H4 A/WF/HK/MPA892/06 (influenza A virus); assay: cell-based or functional assay
HA of H3N2 A/HK/1/68-MA [7] = molecular target: HA of H3N2 A/HK/1/68-MA (influenza A virus); assay: cell-based or functional assay; remark: listed apart in the source
[8] = molecular target: HA of H1N1 A/Puerto Rico/8/34-MA (influenza A virus); assay: cell-based or functional assay
[9] = molecular target: HA of H7N7 A/Netherlands/219/2003 (influenza A virus, UniProt P36346 19-563); assay: AlphaLISA competition vs CR9114
[10] = molecular target: HA of H3N2 A/Wisconsin/67/2005 (influenza A virus); assay: cell-based or functional assay
HA of H3N2 A/HK/1/68 [11] = molecular target: T1, HA of H3N2 A/HK/1/68; assay: cell-based or functional assay
[12] = molecular target: HA of H10N7 A/Chick/Germany/N/49 (influenza A virus); assay: cell-based or functional assay; remark: listed apart in the source
HA of H7N7 A/PR8 H7N7-NY = HA of H7N7 A/PR8 H7N7-NY (influenza A virus); assay: cell-based or functional assay
HA of H7N9 A/Anhui/1/13 = HA of H7N9 A/Anhui/1/13 (influenza A virus); assay: cell-based or functional assay
[13] = molecular target: HA of H5N1 A/PR8 H5N1 HK97 (influenza A virus); assay: cell-based or functional assay
[14] = molecular target: HA of H3N2 A/Panama/2007/99 (influenza A virus); assay: cell-based or functional assay
[15] = molecular target: HA of H4 A/WF/HK/MPA892/06 (influenza A virus); assay: cell-based or functional assay; remark: listed apart in the source

B1: SD1076 (VHH)
VHH: EVQLVESGGGLVQAGGSLTLSCAGSGFAFSIATMGWYRQAPGKQRELVADITSGGSTNYADSVKGRFTISRDNAKNTVYLQMNSLKPEDTAVYYCNADSLATGWRQYSYWGKGTQVTVSS
notes: llama sdAb
In the case of B1, the binding result (HA of H3N2 A/HK/1/68 [1]) is reported as “no binding (tested: HA 20 µg/mL)”, the VNA titer [2] is reported as > 1000 nM and the VNA titer [3] is reported as 38.5 nM. For the same binder, the VNA titer (HA of H3N2 A/HK/1/68-MA [4]) was > 1000 nM, the VNA titer [5] was > 1000 nM and the VNA titer [6] was > 1000 nM.

B2: SD1034 (VHH)
VHH: EVQLVESGGGLVQAGGSLRLSCAASGTIFGIRVNTMGWYRQAPGEQRELVATITRSGGTNYADSVKDRFTISGDFAKDTVYLQMMHLKPEDTAVYYCNGRWALTDYWGQGTQVTVSS
In the case of B2, the VNA titer (HA of H3N2 A/HK/1/68-MA [4]) is reported as > 1000 nM.

B3: SD1014 (VHH)
VHH: EVQLVESGGGLVQAGGSLTLSCAASGRTYAMAWFRQAPGKEREFVAHINALGTRTYYSDSVKGRFTISRDNAKNTEYLQMNSLNPEDTAVYYCAAGGQWRAAPVADAAQYDFWGQGTQVTVSS
notes: llama sdAb
With B3 the VNA titer (HA of H3N2 A/HK/1/68-MA [7]) was > 1000 nM, the VNA titer [8] was > 1000 nM and the pIC50 [9] was 9.2.

B4: SD1017 (VHH)
VHH: B3 VHH with T19R, T55A, K62E, E76G, N84E, Y92V
In the case of B4, the VNA titer (HA of H3N2 A/HK/1/68-MA [7]) is reported as > 1000 nM, the VNA titer [8] is reported as > 1000 nM and the VNA titer [10] is reported as > 1000 nM.

B5: SD1046 (VHH)
VHH: EVQLVESGGGLVQAGDSLRISCAASGRTLSIYSMGWFRQAPGKEREFVATIGWNSGRTFYPDSLKGRFTISRDNARNTLYLQMNNLRPEDTAVYYCAAAKGPLRLSSQADYWGQGTQVTVSS
With B5 the VNA titer (HA of H3N2 A/HK/1/68 [11]) was 202 nM, the VNA titer [12] was 34.3 nM and the VNA titer (HA of H7N7 A/PR8 H7N7-NY) was 25.9 nM. The VNA titer (HA of H3N2 A/HK/1/68-MA [7]) was 26.4 nM, the VNA titer (HA of H7N9 A/Anhui/1/13) was 46.1 nM and the VNA titer [8] was > 1000 nM. The VNA titer [13] was > 1000 nM, the VNA titer [10] was > 1000 nM and the VNA titer [14] was > 1000 nM. It also gave a VNA titer [15] of 34.3 nM.

B6: SD1048 (VHH)
VHH: EVQLVESGGGVVQPGGSLRLSCVASGRTSSMYSIGWFRQAPGKEREFVAVIGWYSGRTFYTDSMKGRFTISRDNARNTVYLQMNSLKPEDTAVYYCAAANGPLRLSNQADYWGQGTQVTVSS
Binder B6 has a VNA titer [12] of 34.3 nM, a VNA titer (HA of H7N7 A/PR8 H7N7-NY) of 93 nM and a VNA titer (HA of H3N2 A/HK/1/68-MA [7]) of 110 nM. For the same binder, the VNA titer [8] was > 1000 nM, the VNA titer [13] was > 1000 nM and the VNA titer [10] was > 1000 nM. The VNA titer [14] was > 1000 nM and the VNA titer [15] was 34.3 nM.

B7: SD1049 (VHH)
VHH: EVQLVESGGGLVQAGGSLRLSCAASGRTLSLYSVGWFRQAPGKEREFVATIGWNSGRTFYVDSMKGRFTISRDNAKNTVYLQMNDLKVEDTAVYYCAAAKGPLRLSNQADYWGQGTQVTVSS
B7 was tested, and the VNA titer (HA of H3N2 A/HK/1/68-MA [7]) was 76.1 nM and the VNA titer [8] was > 1000 nM.
